Consider one substance from PMC7057348.

Common to all, as to assay: SPR; Biacore T200; omalizumab, Fabs and scFv immobilised on CM5 chips by amine coupling; IgE-Fc injected in a twofold dilution series (100-0.4 nM), 20 µl/min, 240 s association, 900 s dissociation; 25°C; 20 mM HEPES pH 7.4, 150 mM NaCl, 0.005% (v/v) surfactant P20; biphasic model with one higher-affinity and one lower-affinity interaction
Experiment [1] has as its target FabXol (wild-type omalizumab Fab).
Experiment [2] has as its target FabXol2 (omalizumab-derived Ser81Arg, Gln83Arg light-chain mutant Fab).
Experiment [3] addresses FabXol3 (omalizumab-derived Ser81Arg, Gln83Arg, Leu158Pro light-chain mutant Fab).
In experiment [4] the target is Omalizumab (intact anti-IgE monoclonal IgG1 antibody).
Experiment [5] addresses scFvXol (omalizumab-derived scFv).

With “IgE-Fc (Fc region of immunoglobulin E) (domain or fragment)”, the koff1 (biphasic model) was determined as 0.00056 s⁻¹ in experiment [1]; 0.00045 s⁻¹ in experiment [2]; 0.00033 s⁻¹ in experiment [3]; 0.0007 s⁻¹ in experiment [4]; 0.00029 s⁻¹ in experiment [5]. Also, the koff2 (biphasic model) in experiment [1] stood at 0.012 s⁻¹; in experiment [2] it was 0.011 s⁻¹; in experiment [3] it was 0.009 s⁻¹; in experiment [4] it was 0.012 s⁻¹; in experiment [5] it was 0.0087 s⁻¹. For the same substance, the kon1 (biphasic model) amounted to 570000 M⁻¹ s⁻¹ in experiment [1]; 510000 M⁻¹ s⁻¹ in experiment [2]; 970000 M⁻¹ s⁻¹ in experiment [3]; 330000 M⁻¹ s⁻¹ in experiment [4]; 690000 M⁻¹ s⁻¹ in experiment [5]. The kon2 (biphasic model) in experiment [1] is 440000 M⁻¹ s⁻¹; in experiment [2] it was 330000 M⁻¹ s⁻¹; in experiment [3], 270000 M⁻¹ s⁻¹; in experiment [4] it was 290000 M⁻¹ s⁻¹; in experiment [5], 310000 M⁻¹ s⁻¹.
